16 sequences from the nanobody polyreactivity screen of Harvey et al. (2022) can be followed below.

This data set in a line: yeast display, Sf9 membrane polyspecificity reagent, FACS + sequencing; frameworks hold sequencing errors. A digest of the protocol:
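A synthetic nanobody library was expressed on Saccharomyces cerevisiae BJ5465 by galactose induction for 36–48 hours. The library was stained for 1 hour at 4 °C with 10% biotinylated, detergent-solubilized Sf9 membrane reagent and enriched with streptavidin microbeads before FACS. Low and high (top ~1%) gates were set on anti-HA fluorescence for expression and streptavidin fluorescence for reagent binding, and each polyreactivity label reflects the gate of origin.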
In the case of “QVQLVESGGGLVQAGGTLLLTCAASGFIFDIYAMGWSRPAPGKERELVAAITWNSGSTHYADSVKGRFTISRDTAKNTVYLQMNRLKPEDTAVYYCAADEVTYAYYPYDYWGQGTQVTVSS”, the “polyreactivity (PSR sort gate)” value is “low polyreactivity”.
In the case of “QVQLVESGGGLVQAGGSLRLSCAATGSTFAVYSMGWYRQAPGKELELVATIRRNGGSTYYADSVKGRFTISRDNAKNTVYLQMNSLQPEDTAVYYCAARSRKRWGYNYWGQGTQVTVSA”, the “polyreactivity (PSR sort gate)” value is “high polyreactivity”.
The same measure for “PVQLVESGGGLVQAGGRLRLSCAASGIIFSDYAMGWYRQAPGKERELVAAIPGGGSTYYADSVKGRFTISRDNAKNTVYLQMNSLKPEDTAVYYCNADWARLWIRSTEVDYWGQGTQVTVSS”: “low polyreactivity”; for “QVQLVESGGVLVQAGGCLRLSCAASGSILDLNAMGWYRQAPGKERELVAAISLSGGTTYYADSVKGRFTISRDNAKNTVYLQMYSLKPEDTAVYYCNAGYFRPRAGNYVFGVESDYWGQGTQVTVSS”: “high polyreactivity”; for “QVQLVESGGGLVQAGGSLRISCAASGRTFPGYTMGWYRQAPGKERELVAAITRVGTTYYADSVKGRFTISRDNAKNTVYLQMNSLKPEDTAVYYCAAVISQGFIRYYYWGQGTQVTVSS”: “high polyreactivity”.
The same measure for “QVQLVESGRGLVQAGGSLRLSCAASGRIFGVYGRGWYRQAPGKERELVAAISWSGATTYYADSVKGRFTISRDNAKNTVYLQMHSLKPEDTAVYYCAADFGWFYDGVAVWFIRILGDYWGQGTQVTVSS”: “low polyreactivity”; for “QVQLVESGGGLDQAGGSLRLSCAASGFTSGYNVLGWYRQAPGTARELVAAISWRGTSTYYADSVKGRFTISRDNAKNTVYLQMNSLKPEDTAVYYCAARQRWYWRGYDYWGQGTQVTVSS”: “high polyreactivity”.
The same measure for “QVQLVESGGGLVQAGGSLRLSCAASGRIFYFYAMGWYRQAPGKERELVASISSGGITNYADSVKGRFTISRDNAKNTVYLQMNSLKPEDTAVYYCNAGYASGKYSGGYLYGYWGQGTQVTVSS”: “low polyreactivity”; for “QVQLVESGGGLVQAGGSLRISCAASGFTFGRYAMGWYRQAPGKEREFVASISARGGNTFYADSVKGRFTISRDNAKNTVYLQMTSLKPEDTAVYYCNALTYFKRSEYYWGQGTQVTVSS”: “high polyreactivity”; for “QVQLVESGGGLVQAGGSLRLSCAASGRIFKTNAMGWYRQAPGKERELVAGINSSDGSTYYADSVKGRFTISRDIEKNTVYLQMNSLKPEDTAVYYCAAVRYYWGQGTQVTVSS”: “low polyreactivity”.
Take “QVQLVESGGGLVQAGGSLRLSCAASGRTFYGNAMGWYRQAPGNERELVAAITTGGGNTYYADSVKGRFTISRDNAKNTVYLQMNSLKPDDTAVYYCAAYERKFYTVSRWYKLDYWGQGTQVTVSS”: the “polyreactivity (PSR sort gate)” value was “high polyreactivity”.
In the case of “QVQLVDSGGGLVQAGGSLRLSCPASGSIIPYNALGWYRQAPGKERELVATISSGGSTNYADSVKGRFTISRDNAKNTVYFQMNSLKPEDTAVYYCAADVIVFYYAPNYWGDIEYGYWGQGTQVTVSS” it was “low polyreactivity”; in that of “QVQLVESGGGLGQAGGSLRLSCAASGSIFYYYAMGWYRQAPGKERELVASITSSGGTTSYADSVKGRFTISRDNAKNTVNLQMNSLKPEDTEVYYGNAQVYRYRIGYDYWGQGTQVTVSS”, “low polyreactivity”; in that of “QVQLVESGGGLVQAGGSLRLSCSASGSTSGKYAMGWYRQAPGKESELVAGITKGGGGTYYADSVKGRFTISRDNAKNTVYLQMNSLKPEDTAVYYCAKYYGSGYYIYDYWGQGTQVTVSS”, “low polyreactivity”.
In the case of “QVQLVESGGGLVQAGGSLRLSCAASGRIFTVYAMGWYRQAPGKERELVAAIDWSDGSTYYADSVKGRFTISRDNAKNTVYLQMNCLKPEVTAVYYCAAETYWVVEYDYWGQGTQVTVSS” it was “high polyreactivity”; in that of “QVQLVESGGGLVQAGGSLRLSCAASGRIFSQYAMGWYRQAPGKEREFVASISRSGGRTYYADSVKGRFTISRDNAKNTVYLQMNSLKPEDTAVYYCAARAETRYYTYNYWGQGTQVTVSS”, “high polyreactivity”.
